Substrate in data set [1]: CC(=O)N[C@@H](CC(=O)O)C(=O)N[C@@H](C)C(=O)N[C@@H](CC(=O)O)C(=O)N[C@@H](CCC(=O)O)C(=O)N[C@@H](Cc1ccc(OP(=O)(O)O)cc1)C(=O)N[C@@H](CC(C)C)C(N)=O
As to the kind of experiment: (§1) Binding affinity constant against mammalian protein-tyrosine phosphatase 1 (PTP1).

Substrate in data set [2]: CC(=O)N[C@@H](CC(=O)O)C(=O)N[C@@H](C)C(=O)N[C@@H](CC(=O)O)C(=O)N[C@@H](CCC(=O)O)C(=O)N[C@@H](Cc1ccc(OP(=O)(O)O)cn1)C(=O)N[C@@H](CC(C)C)C(N)=O
The description is as §1.

B1: Tyrosine-protein phosphatase non-receptor type 1 (Homo sapiens), P18031 (protein)
chain: MEMEKEFEQIDKSGSWAAIYQDIRHEASDFPCRVAKLPKNKNRNRYRDVSPFDHSRIKLHQEDNDYINASLIKMEEAQRSYILTQGPLPNTCGHFWEMVWEQKSRGVVMLNRVMEKGSLKCAQYWPQKEEKEMIFEDTNLKLTLISEDIKSYYTVRQLELENLTTQETREILHFHYTTWPDFGVPESPASFLNFLFKVRESGSLSPEHGPVVVHCSAGIGRSGTFCLADTCLLLMDKRKDPSSVDIKKVLLEMRKFRMGLIQTADQLRFSYLAVIEGAKFIMGDSSVQDQWKELSHEDLEPPPEHIPPPPRPPKRILEPHNGKCREFFPNHQWVKEETQEDKDCPIKEEKGSPLNAAPYGIESMSQDTEVRSRVVGGSLRGAQAASPAKGEPSLPEKDEDHALSYWKPFLVNMCVATVLTAGAYLCYRFLFNSNT
The Km is the substrate concentration at which the rate is half of its maximum. On to B1, for which the Km in data set [1] was determined as 3.6 µM; in data set [2], 210 µM.
